Measurements from paper PMC9307952, “Lipoate protein ligase B primarily recognizes the C8-phosphopantetheine arm of its donor substrate and weakly binds the acyl carrier protein” (The Journal of Biological Chemistry, 2022).
Numbering of substitutions follows the chain as printed. Names may count otherwise.

B1: E. coli LipB (EcLipB) (Escherichia coli K-12; G72A/G73A) (protein)
chain: MYQDKILVRQLGLQPYEPISQAMHEFTDTRDDSTLDEIWLVEHYPVFTQGQAGKAEHILMPGDIPVIQSDRAAQVTYHGPGQQVMYVLLNLKRRKLGVRELVTLLEQTVVNTLAELGIEAHPRADAPGVYVGEKKICSLGLRIRRGCSFHGLALNVNMDLSPFLRINPCGYAGMEMAKISQWKPEATTNNIAPRLLENILALLNNPDFEYITA
B2: E. coli LipB (EcLipB) (Escherichia coli K-12; R71A) (protein)
chain: B1 chain with R71A, A72G, A73G
B3: E. coli LipB (EcLipB) (Escherichia coli K-12; K135A) (protein)
chain: B1 chain with A72G, A73G, K135A

The proteins below were run on CCCCCCCC(=O)SCCNC(=O)CCNC(=O)[C@H](O)C(C)(C)COP(=O)(O)OP(=O)(O)OC[C@H]1O[C@@H](n2cnc3c(N)ncnc32)[C@H](O)[C@@H]1OP(=O)(O)O (assay: purified protein). Details: 5 μM LipB, 25 μM E. coli GcvH as acceptor, 0-160 μM C8-CoA, 50 mM Tris-HCl, 200 mM NaCl, pH 8.0, 30 °C.

In order of rising Km:
1. B1  6.71 ± 0.98 µM
2. B2  34.39 ± 8.8 µM
3. B3  42.37 ± 4.58 µM

In order of falling Vmax:
1. B1  0.32 µmol/min
2. B2  0.26 µmol/min
3. B3  0.2 µmol/min

In order of rising kcat:
1. B3  0.000667 s⁻¹
2. B2  0.000833 s⁻¹
3. B1  0.001 s⁻¹
